Measurements: the nanobody polyreactivity screen of Harvey et al. (2022)

Assay: yeast display, Sf9 membrane polyspecificity reagent, FACS + sequencing; frameworks hold sequencing errors
Outline: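 After 36–48 hours of galactose induction, yeast (Saccharomyces cerevisiae BJ5465) displaying a synthetic nanobody library were stained at 4 °C for 1 hour with 10% biotinylated, detergent-solubilized Sf9 membrane reagent. Streptavidin microbeads enriched the stained cells before FACS sorting into low and high (top ~1%) gates on anti-HA and streptavidin fluorescence. Each clone's polyreactivity label reflects its gate of origin.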

QVQLVESGGGLVQAGGSLRLSCAASGSILSGNTMGWYRPAPGKERELVAAISYGGGSTYYADSVKGRFTISRDNAKNTVYLQMNSLKPEDTAVYYCAADPWYVAYLLDGYGMDYWGQGTQVTVSS
polyreactivity (PSR sort gate): low polyreactivity

QVQLVESGGGLVQAGGSLRLSCAASGIIIDRYAMGWYRQAPGKERELVAAISWSGGRTYYADSVKGRFTISRDNAKNTVYLQMNSLKPEDTAVYYCAAKPSVDLDYWGQGTQVTVSS
polyreactivity (PSR sort gate): high polyreactivity

QVQLVESGGGLVQAGGSLRLSCAASGSIFSQYAMGSYRQAPGKERELVAAITSGGRTYYADSVKGRFTISRDNAKNTVYLQMNSLKPEDTAVYYCAASRRGGGLDYWGQGTKVTVSS
polyreactivity (PSR sort gate): high polyreactivity

QVQLVESGGGLVQAGGSRRLSCADSGSIFDQYTMGWSRQAPGKEWELVAGISSGGITNYADSVKGRFTLSRDNAKNTVYLQMTSLKPEDTAVYYCPADNWDLAEYDYWGQGPQVTVSS
polyreactivity (PSR sort gate): low polyreactivity

QVQLVESGGGLVQAGGSLRLSCAASGSIFNRYAMGWYRQAPGKEREFVARISKRGGGTYYADSVKGRFTISRDNAKNTVYLQMNSLKPEDTAGYYCNAGVPSAMDYWGQGTQVTVSS
polyreactivity (PSR sort gate): high polyreactivity

QVQLVESGGGLVQAGASLRLSCAASGSIFIWYAMGWYRQAPGKERELVAAITSSGSTNYADSVKGRFTISRDNAKNPVYLQMNSLKPEDTAVYYCAAEYTYYTYNLNYWGQGTQVTVSS
polyreactivity (PSR sort gate): low polyreactivity

QVQLVESGGGLGQAGGSLRLSCAASGRIFGYYAMGGYRQAPGKARELVAGIDWSGGNTYYADSVKGRFTISRDNAKNTVYLQMNSLKPEDTAVYYCAKYKGRGDSGYDSWGQGTQVTVSS
polyreactivity (PSR sort gate): low polyreactivity

QVQLVESGGGLVQAGGSLRLSCAASGSTFFIYAMGWYRPAPGKERELVAAISWRDGSTYYADSVKGRFTISRDNAKNTVYLQMNSLKPEDTAVYYCAADYLLPWGIELDYWGQGTQVTVSS
polyreactivity (PSR sort gate): high polyreactivity

QVQLVESGGGLVQAGGSLRLSCAASGYNFYVNGMGWYRQAAGTERELVARITLSGTSTYYADSVKGRITISRDYAKNTVYLQMNSLKPDDTAVYYCAAPYFTYGLDVDVYWGQGTQVTVSS
polyreactivity (PSR sort gate): low polyreactivity

QVQLVESGGGLVQAGGSLRLSCAASGRTLTRYAMGWYRQAPGKERELVATISRCGSTNYADSVKGRFTISRDNGKNTVYLQMNSLKPEDTAVYYCAARGRLTAEFDYWGQGTQVTVSS
polyreactivity (PSR sort gate): low polyreactivity

QVQLVESGGGLVQAGGSLRLSCAASGRIFYNYAMGWYRQAPGKERELVAAITRRAGRTYYADSVKGRFTISRDNSKNTVYLQMNSLKPEDTAVYYCAKDEPGSSRVLYDSWGQGTQVTVSS
polyreactivity (PSR sort gate): low polyreactivity

QVQLVESGGGLDQARGTLRLSCAASGSTILGNAMGWYRHAPGKERELVAGITSGGTTNYADSVKGRFTISRVNAKNNVYLQMTSLKPEDTSVYYCNAGGHLEMNYWGKGTQVTVSS
polyreactivity (PSR sort gate): low polyreactivity

QVQLHESGGGLLQAGGTLRLSCAASGTISYAGPMCWYRQSPGKEREFVAGIGVGSNTNYADSVKGRYTIIRDNAKNTVYLQMNSLKPEDTAVYYCAVGGFAPLGRPYWGQGTQVTVSS
polyreactivity (PSR sort gate): low polyreactivity

QLQLVESGGGLVQAGGSLRLSCAASGIIFYWNAMGWYRQAPGKEREFVASISGSGGSTYADSVKGRFTISRDNAKNTVYLQMNSLKPEDTAVYYCAADFSNVGVQHDYYWGQGTQVTVSS
polyreactivity (PSR sort gate): high polyreactivity

QVQLVESGGGLVQAGGSLRLSCAASGLIFIYNTMGWSRQAPGKERELVAAISGRGGSTYYADSVKGRFTISRDNAKNTVYLQMNSLKPEDTAVYYCAAQDTYHSYGLYSWGQGTQVTVSS
polyreactivity (PSR sort gate): low polyreactivity

QVQLVESGGGLVQAGGSLRLSCAASGNTFGLYAMGWYIQAPGKERELVAAIRRGGRTYADSVKGRFTISRDNAKNTVYGQMNSLKPEDTAVYYCAAYYVFLDNDYWGQGSQVTVSS
polyreactivity (PSR sort gate): high polyreactivity

QVQLVESGGGLVQAGGSLRLSCAASGSIFDRYAMGWYRQAPGKERELVAAISTGGSTNYADSVKGRFTISRDNAKNTVYLQMNSLKPEDTAVYYCAARYLYRMYYWGQGTQVTVSS
polyreactivity (PSR sort gate): low polyreactivity

QVKLVESGGGLVQAGGSLRLSCADSGSIFVPNTRGWYRQAPGKERELVAAITAGGSTDYADSVKGRFTISRDNAKNTVYLQMNSLKPEDTAVYYCNADVYSWVSGKEGDYWGQGTQVTVTS
polyreactivity (PSR sort gate): low polyreactivity

QVQLVESGAGLVQAGGSLRLSCPASGYIFWWTALGWSRQQPGKERELVAGISWSGSTTYYADSVKGRFTISRDNAKNTVYLQMNSLNPEDTAVYYCNAADITLYDYDYWGQGTQVTVSS
polyreactivity (PSR sort gate): low polyreactivity

QVQLVESGGGLVQAGGSLRLSCAASGRTLGGYAMGWYRQAPGKERELVASITSTSSTYADSVKGRFTISRDNAKNTVYLQMNSLKPEDTAVYYCAADYFLTSYGWRIHYTYYYWGQGTQVTVSS
polyreactivity (PSR sort gate): low polyreactivity

QVQLVESGGGLLQAGGSLRLSCAASGSTISRYAMGWYRQAPGKERELVAAIRRNGDGTYYADSVKGRFTISRDNAKNTVYVQMNSLKPEDTAVYYCAARRFIPRFNYWGQGTQVTVSS
polyreactivity (PSR sort gate): high polyreactivity

QVQLVESGGGLVQAGGSLRLSCAASGSIFAWYAMGWYRPAPGKERELVATITWSGGSTYYADSVKGRVTISRDNAKNTVYLQMNSLKPEDTAVYYCAAEVLGIWYDLWDQGDYGGQGTQVTVSS
polyreactivity (PSR sort gate): low polyreactivity

QVQLVESGGGLVQAGGSLRLSCAASGSTFDYYTMGGYRQAPGKERELVAAISSSGGSTYYADSVKGRFTISRDNAKNNVYLQMISLKPEDTAVYYCAADASPYGDVYDYWGQGTQVTVSS
polyreactivity (PSR sort gate): low polyreactivity

QVQLVESGGGLVQAGGSLRLSCAASGFTFGVNAMGWYRQAPGKERELVAAISRSGGSTYYADSVKGRFTISRDNAKNTVYLEMNSLKPEDTAVYYCNKAYHRRDSEFGYWGQGTQVTVSS
polyreactivity (PSR sort gate): high polyreactivity

QVQLVESGGGLVQAGGSLRISCAASGRIFRQNTMGWYRQAPGKERELVAAISRSGGSTYYADSVKGRFTISRENAKNTVYLQMNSLKPEDTAVYYCNKVTYIVAIWGSDIYVPSEFGYWGQGTQVTVSS
polyreactivity (PSR sort gate): high polyreactivity

QVQIVESGGGLVQAGGSLRLSCAASGSISVANAMGWYRQAPGKDRELVAAITDSGDDTYYADSVKGRFTISRDIAKNTVYLQMNSLKPEDTAVYYCAVEAWSVPPYDYWGQGTQVTVSS
polyreactivity (PSR sort gate): low polyreactivity

QVQLVESGGGLVQAGGSLRLSCAASGRIFQKYAMGWSRQAPGKERELVAAISYGGGRTYYADSVKGRFTISRDNAKNTVYLQMNSLKPEDTAVYYCATDYKYAAPTVIESDYWGQGTQVTVSS
polyreactivity (PSR sort gate): high polyreactivity

QVQLVESGGGLVQAGGSLRLSCAASGRIFYYYAMGWYRQAPGKERELVAAISASGASTYYADSVKGRFTISRDNAKNTVYLQMNSLKPEDTAVYYCAAEEFYYYSADWYDYWGQGTQVTVSS
polyreactivity (PSR sort gate): high polyreactivity

QVQLVESGGGLVQAGGSLRLSCAATGITFGRNTMGWYRQAPGKERDLVAAIDSGGNTYADSVKGRFTISRDNAKNTVYLQMNSLKPEDTGVFYSAGDGGELSSYGYWGQGTQVTVSS
polyreactivity (PSR sort gate): low polyreactivity

QVQLVESGGGLVQAGGSLRLSSAASGFILNRNAMGWYRQAPGKVRELVAAISKSGGSTYYADSVKGRFTISRDNAKNTVYLQMNRLKPEDTAVYYCAAYTYLGRYEARRDYWGQGTQVTVSS
polyreactivity (PSR sort gate): high polyreactivity

QVQLVESGGGLVQAGGSLRISCAASGSIFYGYAMGWYRQAPGKERELVAAITWSGGSTYYADSVKGRFTISRDNAKNTVYLQMNSLNPEDTAVYFCNAVSTRFRVRTSDYWGQGTQVTVSS
polyreactivity (PSR sort gate): high polyreactivity

QVQLVESGGGLVQAGGSLRLSCAASGRTFYANAMGWYRHAPGKERELVASITGSGGRTYYADSVKGRFTISRDNAKNTVYLLMNSLKPEDTAVYYCNADPGWVYRDYEPNGLDYWGQGTQVTVSS
polyreactivity (PSR sort gate): low polyreactivity

QVQLVESGGGLVQAGGSLRLSCAASGFTFSVYAMGWSRQAPGKERELVAAITSDGITNYADSVKGRFTISRDNAKNTVYLQMNSLKPEDTAVYYCNADPGYVRGYDYWGQGTQVTVSS
polyreactivity (PSR sort gate): low polyreactivity

QVQLVESGGGLVQAGGSLRLICAASGSTFYYNAMGWYRQAPGKERELVAGITYRGGSTYYADSVKGRFTISRDNAKNTVYLQMNSLKPEDTAVYYCAARHYIWSQYYTRYDYWGQGTQVTVSS
polyreactivity (PSR sort gate): high polyreactivity

QVQLVESGGGLVQAGGSLRLSCAASGSTFAPYAMGWYRQAPGTERELVAALTTGGSTNYADYVKGRFTISRDNATNTVYLQMNSLKPEDTAVYYCNAEYGGGVDGTYKYYSEYDYWGQGTQVTVSS
polyreactivity (PSR sort gate): low polyreactivity

QVQLVESGGGLVQAGCSLRLSCAASGRTFGRNAMGWNRQAPGKERELVAAITSGGSTSYADSVKGRFTISRDNAKNTVYLQMNSLKPEDTAVYYCAADVRPYYTRRVWIQFDYWGQGTQVTVSS
polyreactivity (PSR sort gate): high polyreactivity

QVQLVESGGGLVQAGGSLRLSCAASGLTFAFNAMGWYRPAPGKERELVAAISKSGGSTYYADSVKGRFTISRDNAKNTVYLQMNSLKPEDTAVYYCAAGFWYYSYPTLYEYGYWGQGTQVTVSS
polyreactivity (PSR sort gate): low polyreactivity

QVQLVESGGGLVQAGGSLRLSCAASGGIFAYMGWYRQAPGKERELVASITSSGGSTYYADSVKGRFTISRDNAKNTVYLQMNSLKPEDTAVYYCAADPDFYKSVQYDYWGQGTQVTVSS
polyreactivity (PSR sort gate): low polyreactivity

QVQLVESGGGLVQAGGSLRLSCAASGRTFWYYTMGWYRQAPGKERELVAAISSGGTTNYADSVKGRFTISRDNAKNTVYLQMNSLKPEDTAVYYCAARYRSYAVRLRGYDYWGQGTQVTVSS
polyreactivity (PSR sort gate): high polyreactivity

QVQLVESGGGLVQAGGSLRLSCAASGSTFPPNAMGWYRQAPGKERELVAVISYTSGRTYYADSVKGRFTISRDNAKNTVYLQMNSLKPEDTAVYYCNKRVLYRQRGFNYWGQGTQVTVSS
polyreactivity (PSR sort gate): high polyreactivity

QVQLVESGGGLVQAGGSLRLSCAASGIIFFPYAMGWYRQAPGKEREFVAAITSRGGSTYYADSVKGRFTISRDNAKNTVYLQMNSLKPEDTAVYYCAADHLGRARGPWRYNYWGQGTQVTVSS
polyreactivity (PSR sort gate): low polyreactivity

QVQLVESGGGLVQAGGSLRLSCAASGRIFTRYAMGWYRQAPGKERELVATITRRGGSTYYADSVKGRFTISRDNAKNTVYLQMNSLKPEDTAVYYCAKDRTTSSFGEYDYWGQGTQVTVSS
polyreactivity (PSR sort gate): high polyreactivity

QVQLVESGGGLVQAGGSLRLSCAASGSTFQSYAMGWYRPAPGKERELVATITWSSGRTYYADSVKGRFTISRDNAKNTVYLQMKSLKPEDTAVYYCAARKRPFYKYDYWGQGTQVTVSS
polyreactivity (PSR sort gate): high polyreactivity
